Experimental data: paper PMC4333402 (Nucleic Acids Research, 2014)

Molecular target: the molecule itself
Assay: crystal structure

B1: Pyrococcus furiosus Cmr4 (natural protein, UniProt Q8U1S9 1-295, looked up)
chain: MKAYLVGLYTLTPTHPGSGTELGVVDQPIQRERHTGFPVIWGQSLKGVLRSYLKLVEKVDEEKINKIFGPPTEKAHEQAGLISVGDAKILFFPVRSLKGVYAYVTSPLVLNRFKRDLELAGVKNFQTEIPELTDTAIASEEITVDNKVILEEFAILIQKDDKGILESVVKAIEQAFGNEMAEKIKGRIAIIPDDVFRDLVELSTEIVARIRINAETGTVETGGLWYEEYIPSDTLFYSLILVTPRAKDNDMALIKEVLGKINGKYLQIGGNETVGKGFVKVTLKEVTNNGGTHAK
B1: binds.
